Results taken from patent US20240166692A1.

How the values were obtained:
[1] = target: C3b (component obtained after hydrolysis of complement component 3, C3) (UniProt P01024); test: BLI (Octet RED96), GFP tagged Nanofitin captured on anti-GFP Nanofitin biosensor, C3b in solution, 1:1 fit
[2] = target: C3b (component obtained after hydrolysis of complement component 3, C3) (UniProt P01024); test: ELISA screen of optimized Nf1 variants
[3] = target: C3b (component obtained after hydrolysis of complement component 3, C3) (UniProt P01024); test: biolayer interferometry
[4] = target: C3b (component obtained after hydrolysis of complement component 3, C3) (UniProt P01024); test: biolayer interferometry; B10 recombinant from E. coli; untagged B10, recombinant from E. coli
[5] = target: C3b (component obtained after hydrolysis of complement component 3, C3) (UniProt P01024); test: biolayer interferometry; B10 by full chemical synthesis

B1: B10 (SEQ ID NO: 25), GFP tagged anti-C3 Nanofitin (designed binder, not shown: large carriers)
chain: MVKVKFDATGEEKEVDTSKISAVYRTGKDVLFSYDDNGKIGWGYVSEKDAPKELLDLLARAERE
Kd [1]: 7.31 nM
koff [1]: 0.000433 s⁻¹
kon [1]: 59200 M⁻¹ s⁻¹
OD 450 nm [2]: > 4 OD 450 nm

B2: B10 Nanofitin with N-terminal peptide (10-mers) tag and C-terminal peptide (15-mers) tag (designed binder, not shown: small tags and cut ends)
chain: MVKVKFDATGEEKEVDTSKISAVYRTGKDVLFSYDDNGKIGWGYVSEKDAPKELLDLLARAERE
Kd [3]: 2.5 nM

B3: B10 Nanofitin with N-terminal 48 kDa protein (designed binder, not shown: small tags and cut ends)
chain: MVKVKFDATGEEKEVDTSKISAVYRTGKDVLFSYDDNGKIGWGYVSEKDAPKELLDLLARAERE
Kd [3]: 6.7 nM

B4: B10 Nanofitin with N-terminal peptide (10-mers) tag and C-terminal Nanofitin (designed binder, not shown: small tags and cut ends)
chain: MVKVKFDATGEEKEVDTSKISAVYRTGKDVLFSYDDNGKIGWGYVSEKDAPKELLDLLARAERE
Kd [3]: 11.5 nM

B5: H03 (SEQ ID NO: 26), GFP tagged anti-C3 Nanofitin (designed binder, not shown: large carriers)
chain: MVKVKFAATGEEKEVDTSKIANVYRVGKDVLFSYDDNGKIGWGYVSEKDAPKELLDLLARAERE
Kd [1]: 2.89 nM
koff [1]: 0.000188 s⁻¹
kon [1]: 65200 M⁻¹ s⁻¹
OD 450 nm [2]: > 4 OD 450 nm

B6: B10 Nanofitin with N-terminal peptide (10-mers) tag and C-terminal 30 kDa protein (designed binder, not shown: large carriers; small tags and cut ends)
chain: MVKVKFDATGEEKEVDTSKISAVYRTGKDVLFSYDDNGKIGWGYVSEKDAPKELLDLLARAERE
Kd [3]: 7.3 nM

B7: B10 Nanofitin without N- or C-terminal tag (designed binder)
chain: MVKVKFDATGEEKEVDTSKISAVYRTGKDVLFSYDDNGKIGWGYVSEKDAPKELLDLLARAERE
Kd [4]: 18.5 nM
Kd [5]: 18 nM

B8: B10 Nanofitin with N-terminal peptide (10-mers) tag (designed binder, not shown: small tags and cut ends)
chain: MVKVKFDATGEEKEVDTSKISAVYRTGKDVLFSYDDNGKIGWGYVSEKDAPKELLDLLARAERE
Kd [3]: 8.2 nM
